In patent US5977056:

Columns and labels:
[1] = molecular target: fibrinogen (species not stated)
[2] = molecular target: human fibrinogen (in citrated whole blood, plasma or platelet-rich plasma) (human) (UniProt P02671)
[3] = molecular target: fibrinogen (species not stated); remark: listed apart in the source
[4] = molecular target: fibrinogen (species not stated); remark: listed apart in the source

## purified hementin (gland of origin not stated for the experiment) (enzyme)
[1]
  fibrinogenolysis assay: fibrinogen breakdown products on HPLC (RP300-C8): 90%
[2]
  deaggregation of pre-formed ADP-induced platelet aggregates (aggregometer): 3 min
  loss of coagulability of platelet-rich plasma with thrombin: 10 min

## posterior gland hementin (Haementeria ghilianii) (enzyme)
[3]
  Specific Activity (Units/mg), Stage II material: 11500 Units/mg

## anterior gland hementin (Haementeria ghilianii) (enzyme)
[4]
  Specific Activity (Units/mg), Stage III material: 1400 Units/mg
